Columns and labels:
AGO1 = AGO1 (UniProt Q9UL18); assay: Kd (EC50 corrected by depletion factor)
In short: (§1)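 To obtain EC50, data were fitted with a four-parameter log-logistic model; Kd was then EC50 multiplied by a protein-dependent depletion factor. Beforehand, free RNA oligos (0 nM to 30 μM) were pre-incubated with HEK293-FT lysate (2.5 mg protein/well) for 1 h at 4°C. The lysate then spent 30 min at 4°C with the same 5′-amino-C6 oligos coupled to NHS-Sepharose beads, and bound proteins were quantified by label-free LC-MS/MS, normalised to the control.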

MCM4 = target: T1, MCM4 (UniProt P33991); assay: Kd (EC50 corrected by depletion factor)
T1 sequence: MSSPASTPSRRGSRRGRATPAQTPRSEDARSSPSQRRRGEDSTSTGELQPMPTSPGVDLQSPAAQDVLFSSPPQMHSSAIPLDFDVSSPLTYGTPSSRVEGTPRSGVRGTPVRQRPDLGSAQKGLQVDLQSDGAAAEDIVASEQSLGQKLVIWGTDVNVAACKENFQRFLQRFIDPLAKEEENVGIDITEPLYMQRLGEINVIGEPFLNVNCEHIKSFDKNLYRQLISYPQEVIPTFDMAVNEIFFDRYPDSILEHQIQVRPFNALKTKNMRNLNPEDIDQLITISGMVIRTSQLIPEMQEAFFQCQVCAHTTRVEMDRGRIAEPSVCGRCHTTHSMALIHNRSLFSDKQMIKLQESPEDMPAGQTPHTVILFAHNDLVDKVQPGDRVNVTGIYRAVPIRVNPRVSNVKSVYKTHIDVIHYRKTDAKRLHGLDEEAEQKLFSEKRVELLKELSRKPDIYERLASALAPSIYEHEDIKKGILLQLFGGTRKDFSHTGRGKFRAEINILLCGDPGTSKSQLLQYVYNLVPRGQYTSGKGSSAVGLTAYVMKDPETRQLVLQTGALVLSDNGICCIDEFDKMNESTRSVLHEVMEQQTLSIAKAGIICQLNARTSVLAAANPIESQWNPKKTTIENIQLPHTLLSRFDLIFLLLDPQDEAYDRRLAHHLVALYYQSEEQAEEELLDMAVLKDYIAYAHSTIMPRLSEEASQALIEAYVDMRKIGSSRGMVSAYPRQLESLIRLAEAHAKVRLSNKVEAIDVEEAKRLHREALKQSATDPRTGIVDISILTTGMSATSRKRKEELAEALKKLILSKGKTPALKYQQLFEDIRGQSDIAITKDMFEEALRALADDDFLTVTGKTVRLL
In short: as §1

RPS17 = RPS17 (UniProt P08708); assay: Kd (EC50 corrected by depletion factor)
In short: as §1

FUBP3 = target: T2, FUBP3 (UniProt Q96I24); assay: EC50 of free RNA motif oligo competing protein binding to immobilised probe
T2 sequence: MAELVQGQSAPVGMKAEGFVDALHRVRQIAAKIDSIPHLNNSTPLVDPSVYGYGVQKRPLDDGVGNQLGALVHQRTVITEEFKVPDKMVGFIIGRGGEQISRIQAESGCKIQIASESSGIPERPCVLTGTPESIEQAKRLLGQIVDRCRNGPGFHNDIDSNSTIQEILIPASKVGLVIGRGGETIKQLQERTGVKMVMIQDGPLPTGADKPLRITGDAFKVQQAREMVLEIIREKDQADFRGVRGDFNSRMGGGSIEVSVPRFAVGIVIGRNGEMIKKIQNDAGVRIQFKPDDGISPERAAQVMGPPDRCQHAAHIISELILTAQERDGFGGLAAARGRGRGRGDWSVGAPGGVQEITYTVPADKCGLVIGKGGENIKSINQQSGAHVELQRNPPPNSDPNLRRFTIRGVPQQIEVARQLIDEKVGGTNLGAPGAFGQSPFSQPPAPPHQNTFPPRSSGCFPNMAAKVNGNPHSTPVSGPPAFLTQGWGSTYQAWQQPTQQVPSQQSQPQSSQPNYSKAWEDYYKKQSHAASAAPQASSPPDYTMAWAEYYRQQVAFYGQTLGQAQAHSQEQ
In short: as §1

RBM7 = target: T3, RBM7 (UniProt Q9Y580); assay: as above
T3 sequence: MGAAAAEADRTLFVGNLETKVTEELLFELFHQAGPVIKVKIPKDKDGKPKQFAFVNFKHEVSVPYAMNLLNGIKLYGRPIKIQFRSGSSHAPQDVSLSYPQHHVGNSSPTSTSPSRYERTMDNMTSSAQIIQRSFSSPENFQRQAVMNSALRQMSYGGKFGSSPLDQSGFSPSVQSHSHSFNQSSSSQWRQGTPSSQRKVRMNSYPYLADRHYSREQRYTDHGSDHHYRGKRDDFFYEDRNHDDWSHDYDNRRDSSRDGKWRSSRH
In short: as §1

TSN = TSN (UniProt Q15631); assay: as above
Chain of TSN (Q15631 whole entry): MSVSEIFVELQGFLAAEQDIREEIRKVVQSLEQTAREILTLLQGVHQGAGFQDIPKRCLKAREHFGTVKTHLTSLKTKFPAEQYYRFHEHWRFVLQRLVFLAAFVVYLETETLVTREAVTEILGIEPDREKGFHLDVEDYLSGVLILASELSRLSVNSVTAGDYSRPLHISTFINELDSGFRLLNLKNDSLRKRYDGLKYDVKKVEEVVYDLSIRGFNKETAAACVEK
In short: as §1

IGF2BP3 = IGF2BP3 (UniProt O00425); assay: Kd (EC50 corrected by depletion factor)
Chain of IGF2BP3 (O00425 whole entry): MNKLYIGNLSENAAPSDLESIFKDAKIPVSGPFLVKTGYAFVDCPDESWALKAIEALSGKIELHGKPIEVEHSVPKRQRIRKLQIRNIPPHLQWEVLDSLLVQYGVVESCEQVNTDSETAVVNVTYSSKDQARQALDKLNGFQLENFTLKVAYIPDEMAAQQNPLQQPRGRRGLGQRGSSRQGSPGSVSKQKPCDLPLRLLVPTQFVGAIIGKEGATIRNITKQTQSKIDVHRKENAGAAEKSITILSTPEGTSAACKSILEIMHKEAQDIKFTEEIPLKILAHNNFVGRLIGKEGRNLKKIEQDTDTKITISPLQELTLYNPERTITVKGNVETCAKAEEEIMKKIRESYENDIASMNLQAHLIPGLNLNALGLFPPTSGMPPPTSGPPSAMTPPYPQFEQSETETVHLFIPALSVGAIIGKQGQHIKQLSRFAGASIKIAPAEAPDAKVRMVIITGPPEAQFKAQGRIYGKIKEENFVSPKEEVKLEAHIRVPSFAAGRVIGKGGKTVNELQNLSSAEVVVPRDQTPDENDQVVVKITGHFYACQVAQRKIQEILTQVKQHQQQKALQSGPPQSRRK
In short: as §1

MRPL43 = MRPL43 (UniProt Q8N983); assay: Kd (EC50 corrected by depletion factor)
In short: as §1

RPS10 = RPS10 (UniProt P46783); assay: Kd (EC50 corrected by depletion factor)
In short: as §1

CWF19L1 = target: T4, CWF19L1 (UniProt Q69YN2); assay: Kd (EC50 corrected by depletion factor)
T4 sequence: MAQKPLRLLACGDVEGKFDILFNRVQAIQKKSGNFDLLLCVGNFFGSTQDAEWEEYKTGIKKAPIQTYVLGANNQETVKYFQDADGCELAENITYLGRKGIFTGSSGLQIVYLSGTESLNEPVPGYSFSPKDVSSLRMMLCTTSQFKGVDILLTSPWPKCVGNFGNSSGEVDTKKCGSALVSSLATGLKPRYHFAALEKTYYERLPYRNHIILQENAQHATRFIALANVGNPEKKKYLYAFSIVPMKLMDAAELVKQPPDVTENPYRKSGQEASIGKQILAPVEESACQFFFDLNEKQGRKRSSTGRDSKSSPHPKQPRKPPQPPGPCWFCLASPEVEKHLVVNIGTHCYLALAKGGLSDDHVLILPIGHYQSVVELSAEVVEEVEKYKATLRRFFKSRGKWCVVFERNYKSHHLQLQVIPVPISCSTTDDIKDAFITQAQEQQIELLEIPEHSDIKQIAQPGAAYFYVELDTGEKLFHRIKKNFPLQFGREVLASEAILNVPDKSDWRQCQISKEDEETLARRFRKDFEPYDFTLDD
In short: as §1

AAUAAA
Kd (AGO1): 78.7 nM
Kd (MCM4): 25.8 nM
Kd (RPS17): 126 nM
EC50 (FUBP3): 2150 nM
EC50 (RBM7): 1930 nM
EC50 (TSN): 58.4 nM

CUGUCCU
Kd (IGF2BP3): 685 nM
Kd (MRPL43): 40.4 nM
Kd (RPS10): 116 nM

UAUUUAU
Kd (CWF19L1): 1960 nM
EC50 (FUBP3): 802 nM
EC50 (RBM7): 312 nM
EC50 (TSN): 75.2 nM

From the supplement of paper PMC6379048
